Measured values as given in the supplement of paper PMC10567573.

B1: ANKRD9 (parent)
chain: VGAAGSARQELLGDRPRWQRLLGE
B2: BRF1 (parent)
chain: FVESSGGGSSAVGQFVSLDGAGKT

Variants of: B1
Experiment: protein stability index of a GFP-peptide fusion (GPS, HEK-293T) (PSI 1-6); higher = more stable
Settings: c terminus: a fixed tail appended
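Also: lentivirally expressed fusions sorted by FACS into six bins by GFP to DsRed ratio, PSI derived from sequencing read proportions per bin multiplied by bin number.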

Protein stability index, by site and new letter:
S6: I 2.27; E 3.88; F 2.85; T 3.01; R 2.62; K 2.72; G 2.85; N 3.77; L 2.49; Y 2.73; V 2.86; D 3.8; M 3.65; A 2.6; H 2.88; C 1.21
A7: C 3.44; N 3.74; P 2.98; W 2.53; Y 2.43; T 3.62; K 2.94; I 3.49; R 3.08; L 4.03; E 5; S 2.93; V 2.73; Q 4.21; F 2.49; D 3.65; M 3.87; H 3.36
V1: D 4.49; F 2.7; K 3.69; E 2.77; R 2.75; A 3.58; P 3.62; M 3.03; H 3.33; T 3.38; L 2.86; C 1.95; G 3.13; Y 2.56; I 2.35; Q 3.7
R8: G 3.68; K 3.15; T 2.76; D 3.53; N 4.03; I 3.08; Y 2.96; P 2.94; C 3.02; L 2.92; H 3.39; S 3.47; A 2.96; Q 3.37; E 4.01; F 2.5; W 2.35; V 3.32
A4: M 3.1; P 3.39; L 3.18; V 2.92; F 2.44; Y 2.08; G 1.81; S 3.24; I 2.84; W 2.62; C 2.09; D 3.35; K 2.11; T 4.35; E 2.91; Q 4.11; R 3.02
G2: D 3.32; H 2.56; R 4.84; F 2.57; A 3.23; P 3.11; W 2; C 2.24; T 3.06; Q 4.06; V 2.33; E 3.29; S 3.39; Y 2.24; L 2.71; M 2.69; N 3.82; I 2.67
L11: G 3.43; F 4.5; I 3.3; H 2.85; C 3.22; E 4.13
Q9: D 3.7; M 3; A 3.37; T 3.13; N 2.74; V 3.14; L 2.81; Y 2.27; F 2.81; R 3.04; E 2.11; P 3.29; C 2.56; H 3.38; G 3.41; S 3.46; I 2.96; K 3.05
A3: Q 3; W 2.53; S 2.78; I 3.48; E 3.55; H 2.91; F 2.52; N 3.19; T 3.14; K 2.86; V 3.89; M 2.53; D 3.81; G 3.49; C 1.52; R 3.06; P 3.58
G5: S 4; H 2.68; W 2.9; A 3; E 4.56; L 2.68; N 2.9; M 2.37; P 3.53; F 2.86; Y 1.93; K 2.69; V 2.9; T 2.3; Q 3.09; C 1.49; D 2.48; R 2.27; I 2.69
E10: V 3.25; L 2.13; D 3.37; I 2.4; T 2.39; M 2.63; P 1.62; H 2.6; Q 3; Y 3.03; R 2.71; G 2.55; C 2.75; W 1.76; A 2.85; N 3.22; F 3.33; S 3.54

Variants of: B2
Experiment: as above
Settings: c terminus: a fixed tail appended

Protein stability index: each site, then its substitutions
V2: H 3.87; M 4.49; S 4.35; F 4.2; R 4.44; D 5.17; N 4.94; K 4.25
F15: G 2.68; D 4.4; L 2.27; K 3.1; I 2.55; M 2.22; T 2.96
G7: P 2.34; V 1.61; S 1.78; D 3.52; R 1.38; N 2.26
E3: N 1.75; R 3.14; H 2.01
S4: A 1.97; E 3.28; C 3.2; I 1.86; Y 1.3; V 2.54; P 2.67
S9: L 1.77; C 2.22; M 1.99; D 3.03; H 2.17; T 2.29; Q 2.22
L18: Y 1.85; C 2.5; R 2; T 2.04; Q 2.88; P 2.12
Q14: S 1.78; G 2.06; R 1.39; T 1.86
V12: D 3.13; N 3.08; W 3.19; A 2.2; T 1.86; E 2.87
A21: F 1.33; T 2.54; Y 1.91; R 2.66; C 1.81; W 1.73; N 2.56; G 2.6; I 1.96; V 1.92
S17: V 1.99; D 2.39; T 2.29; F 1.72; P 1.81; N 2.19; E 2.53
A11: E 3.28; R 1.39; D 2.68; T 2.06; Q 2.61; G 2.28; V 2.4
G20: T 2.21; L 2.58; R 2.32; W 2.34; E 2.55; D 2.43; P 2.13; C 2.41; M 1.76; H 2.55
S10: E 2.31; L 1.81; D 2.75; G 2.23; Q 2.53; K 1.42
G13: Q 1.93; W 1.49; H 1.84; M 1.66; T 2.3
S5: G 2.19; Y 1.53; N 2.65; M 1.75; L 1.36; V 1.75; Q 2.71; E 3.68
T24: Y 1.85; E 2.3; M 2
K23: L 2.21; H 2.24; M 2.16; E 2.56
F1: V 4.82; P 5.24; D 5.32; L 4.89; W 3.88; Q 5.13; T 5.09
G22: F 2.35; R 1.87; Q 2.26; L 1.6; P 3.13; C 1.79; T 2.09
G8: T 2.52; D 2.44; L 2.06; M 1.71; Q 3.27; E 3.31; F 1.69; P 2.08
G6: P 2.23; S 2.7; K 2.3; E 2.94; N 1.89
D19: F 1.48; M 2.17; C 1.72; V 1.12; N 2.02
V16: K 2.16; G 2.4; I 2.18; C 3.51; H 2.6; N 2.63; W 4.22
